Measurements taken from US10772928B2, “Modulation and detection of a neuronal alternative splicing regulatory network for treatment and diagnosis of neurological disorders” (The Governing Council of the University of Toronto, priority 2014, dated 2020).

Molecular target: T1, nSR100 (Mus musculus, UniProt Q8BKA3)
T1 construct: host or cells: mouse N2A cells
T1 sequence (Q8BKA3 1-608): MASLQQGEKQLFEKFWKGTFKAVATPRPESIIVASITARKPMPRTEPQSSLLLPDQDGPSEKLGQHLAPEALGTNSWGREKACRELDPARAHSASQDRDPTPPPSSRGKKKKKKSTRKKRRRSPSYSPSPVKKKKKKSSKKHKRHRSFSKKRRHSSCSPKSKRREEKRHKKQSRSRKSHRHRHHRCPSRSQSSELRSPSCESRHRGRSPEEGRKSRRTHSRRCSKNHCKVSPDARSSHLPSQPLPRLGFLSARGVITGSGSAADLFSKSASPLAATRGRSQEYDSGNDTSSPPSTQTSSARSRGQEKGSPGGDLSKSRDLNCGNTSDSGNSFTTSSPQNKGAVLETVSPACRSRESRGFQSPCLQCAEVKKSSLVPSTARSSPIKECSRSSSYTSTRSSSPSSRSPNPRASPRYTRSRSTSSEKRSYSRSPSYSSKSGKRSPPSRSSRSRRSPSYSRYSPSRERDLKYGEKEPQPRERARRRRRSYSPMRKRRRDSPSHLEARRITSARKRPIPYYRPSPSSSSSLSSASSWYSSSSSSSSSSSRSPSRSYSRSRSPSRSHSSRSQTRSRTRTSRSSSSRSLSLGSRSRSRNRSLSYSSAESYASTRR
Assay: AP-MS nSR100 interaction partners from mouse N2A cells (Table 5)
Format: binding
Settings: for AvgP (average of the SAINT scores) / MaxP (maximal SAINT score): bait Srrm4; for FoldChange between the prey Avg spectra of the bait and control purifications: bait Srrm4, 0.1 added to prevent division by 0; for AvgSpec (average number of spectra per replicate): bait Srrm4, 2 replicates; for Spectra (number of spectra for the prey in the purification of the bait): AP-MS; for SpecSum: bait Srrm4, sum of spectra over 2 replicates

[1] = bait Srrm4, biological replicate 1 (first number of the cell)
[2] = bait Srrm4, biological replicate 2 (second number of the cell)

Source text: By applying affinity purification coupled to mass-spectrometry (AP-MS), several interaction nSR100 partner proteins were detected that provide insight into mechanisms of post-translational regulation of nSR100 levels.

Molecule | AvgP (average of the SAINT scores) | MaxP (maximal SAINT score) | FoldChange between the prey Avg spectra of the bait and control purifications | AvgSpec (average number of spectra per replicate) | Spectra (number of spectra for the prey in the purification of the bait) [1] | Spectra (number of spectra for the prey in the purification of the bait) [2] | SpecSum
Ddx47 (protein, UniProt Q9CWX9 2-455, looked up) Probable ATP-dependent RNA …: AADEEPDSPSGALQTAAEEEETKTFKDLGVTDVLCEACDQLGWAKPTKIQIEAIPLALQGRDIIGLAETGSGKTGAFALPILNALLETPQRLFALVLTPTRELAFQISEQFEALGSSIGVQCAVIVGGIDSMSQSLALAKKPHIVIATPGRLIDHLENTKGFNLRALKYLVMDEADRILNMDFETEVDKILKVIPRDRKTFLFSATMTKKVQKLQRAALKNPVKCAVSSKYQTVEKLQQYYLFIPSKFKDTYLVYILNELAGNSFMIFCSTCNNTQRTALLLRNLGFTAIPLHGQMSQSKRLGSLNKFKAKARSILLATDVASRGLDIPHVDVVVNFDIPTHSKDYIHRVGRTARAGRSGKAITFVTQYDVELFQRIEHLIGKKLPVFPTQDEEVMMLTERVNEAQRFARMELREHGEKKKRKREDAGDDDDKEGAIGVRNKVAGGKMKKRKGR | 1 | 1 | 35 | 3.5 | 3 | 4 | 7
Cwc22 (protein, UniProt Q8C5N3 1-908, looked up) Pre-mRNA-splicing factor …: MKSSVAHMKSSGHNRRETHSSYRRSSSPEDRYTEQERSPRDRGYSDYSRSDYERSRRGYSYDDSMESRSRDREKRRERERDADHRKRSRKSPSPDRSPARGGGQSSPQEEPTWKKKKDELDPLLTRTGGAYIPPAKLRMMQEQITDKSSLAYQRMSWEALKKSINGLINKVNISNISIIIQELLQENIVRGRGLLSRSVLQAQSASPIFTHVYAALVAIINSKFPQIGELILKRLILNFRKGYRRNDKQLCLTASKFVAHLINQNVAHEVLCLEMLTLLLERPTDDSVEVAIGFLKECGLKLTQVSPRGINAIFERLRNILHESEIDKRVQYMIEVMFAVRKDGFKDHPVILEGLDLVEEDDQFTHMLPLEDDYNPEDVLNVFKMDPNFMENEEKYKAIKKEILDEGDSDSNTDQGAGSSEDEEEEDEEEEGEDEEGGQKVTIHDKTEINLVSFRRTIYLAIQSSLDFEECAHKLLKMEFAESQTKELCNMILDCCAQQRTYEKFFGLLAGRFCMLKKEYMESFESIFKEQYDTIHRLETNKLRNVAKMFAHLLYTDSLPWSVLECIKLSEETTTSSSRIFVKIFFQELCEYMGLPKLNARLKDETLQPFFEGLLPRDNPRNTRFAINFFTSIGLGGLTDELREHLKNTPKVIVAQKPEAEQKKPALTSSSSESSSASDSSDSESDSSESSSESSSDASDSSSSSSTQSSTSGITAHSAKGTRKKRQGKARGEEVDKLARGHQALERRREGGREDQRHQEGRTERARSERRRAQNSRDADWRDPLAKHIDDRSHENSHSRVGNGREQGSHREPEDRHGEPKKRRERRDSFSENEKQRSRNQDSDNVRRKDRSKSRERSRRHSGHKGDDARCQNSAERRWEKPGRRPEQSRESKRSQDRRREKSPTTQK | 1 | 1 | 385 | 38.5 | 37 | 40 | 77
Poldip3 (protein, UniProt Q8BG81 2-420, looked up) Polymerase delta-interacting …: ADLSLDELIRKRGTAAKGRLSVRPGIGGVRSRVGIQHSLVNQPARTATFQQRFDARQKIGLSDARLKLGVKDAREKLLQKDARFRIKGKVQDAREMLNSRKQQGTVPQKPRQVADAREKISLKRRSPAAFTSPPIGTVTPALKLTKTIQVPQQKAMVPLHAHPAGMRINVVNNHQAKQNLYDLDEDDDIVVPVPPKQMKFAATGSLVHHMTGLSSSKLSMSKALPLTKVVQNDAYTAPVLPSSVRTKALTSMSRTLVNKEEPPKELPPAEPVLSPLEGTKMTVNNLHPRVTEEDIVELFCVCGALKRARLVHPGVAEVVFVKKDDAITAYKKYNNRCLDGQPMKCNLHMNGNVITSDQPILLRLSDSPSVKKESELPRRGNPASSNPPAEVDPDTVLRALFKSSGASVTTQPTEFKIKL | 1 | 1 | 65 | 6.5 | 7 | 6 | 13
Ccdc55 (protein, UniProt Q5NCR9 1-542, looked up) Nuclear speckle splicing …: MAIPGRQYGLILPKKTQPLHRVLQKPSVFGSDSDDDETSVSESLQREAAKKQAMKQTKLEIQKALAEDSTVYEYDSVYDEMQKKKEENNPKLLPGKDRKPKYIHNLLKAVEIRKKEQEKRMEKKIQREREMENGEFDDKEAFVTSAYKKKLEERAEEEEREKRAAALEAHLDVTKQKDLSGFYRHLLNQAVGEEAAPKSSFREARTVIKEEKLRGYPDETNSESRPPQQSCVLQRGAQEAEENPDADREFDDESSEDGEKRDHKVKSRGEDTGASMKHPKHHKNRAHSRSSSEERGLGTKHHSRGSQSRGHEHQDRQSRDQESCHKDRSHREEKSSHRHREASHKDHYWKKHEQEDKLKGREQEERQDREGKREKYSSREQERDRQRNDHDRYSEKEKKRKEKEEHTKARRERCEDSGKHREREKPEGHGQSSERHRDRRESSPRSRPKDDLDQERSSKARNTEKDKGEQGKPSHSETSLATKHRLAEERPEKGSEQERPPEAVSKFAKRSNEETVMSARDRYLARQMARINAKTYIEKEDD | 1 | 1 | 75 | 7.5 | 5 | 10 | 15
Csnk2a2 (protein, UniProt O54833 1-350, looked up) Casein kinase II subunit …: MPGPAAGSRARVYAEVNSLRSREYWDYEAHVPSWGNQDDYQLVRKLGRGKYSEVFEAINITNNERVVVKILKPVKKKKIKREVKILENLRGGTNIIKLIDTVKDPVSKTPALVFEYINNTDFKQLYQILTDFDIRFYMYELLKALDYCHSKGIMHRDVKPHNVMIDHQQKKLRLIDWGLAEFYHPAQEYNVRVASRYFKGPELLVDYQMYDYSLDMWSLGCMLASMIFRKEPFFHGQDNYDQLVRIAKVLGTDELYGYLKKYHIDLDPHFNDILGQHSRKRWENFIHSENRHLVSPEALDLLDKLLRYDHQQRLTAKEAMEHPYFYPVVKEQSQPCAENTVLSSGLTAAR | 1 | 1 | 10 | 20 | 16 | 24 | 40
Cdc37 (protein, UniProt Q61081 1-379, looked up) Hsp90 co-chaperone Cdc37: MVDYSVWDHIEVSDDEDETHPNIDTASLFRWRHQARVERMEQFQKEKEELDRGCRECKRKVAECQRKLKELEVAESDGQVELERLRAEAQQLRKEERSWEQKLEDMRKKEKNMPWNVDTLSKDGFSKSMVNTKPEKAEEDSEEAREQKHKTFVEKYEKQIKHFGMLHRWDDSQKYLSDNVHLVCEETANYLVIWCIDLEVEEKCALMEQVAHQTMVMQFILELAKSLKVDPRACFRQFFTKIKTADHQYMEGFKYELEAFKERVRGRAKLRIEKAMKEYEEEERKKRLGPGGLDPVEVYESLPEELQKCFDVKDVQMLQDAISKMDPTDAKYHMQRCIDSGLWVPNSKSGEAKEGEEAGPGDPLLEAVPKAGNEKDVSA | 1 | 1 | 4.61 | 53 | 58 | 48 | 106
